These results are taken from patent US20120052069A1 (Amgen, published 2012).

The target in the assay is β-Klotho overexpressed in recombinant human 293T kidney cells. Description: cell-based or functional assay.

B1: human FGF21 (wild-type mature FGF21) (ligand)
chain: HPIPDSSPLLQFGGQVRQRYLYTDDAQQTEAHLEIREDGTVGGAADQSPESLLQLKALKPGVIQILGVKTSRFLCQRPDGALYGSLHFDPEACSFRELLLEDGYNVYQSEAHGLPLHLPGNKSPHRDPAPRGPARFLPLPGLPPAPPEPPGILAPQPPDVGSSDPLSMVGPSQGRSPSYAS
For the molecule B1, the “EC50 (nM), ELK luciferase assay” value was determined as 0.4 nM and the “Efficacy, ELK luciferase assay” value is 100%.
